This data set is described as follows: total protein half-life in vivo (active degradation + dilution); higher = more stable protein.
The mark [1] stands for this setting: E. coli NCM3722 delta-clpP delta-lon delta-hslV, growth: N-lim chemostat, doubling time 6 h.
Setting [2] is: E. coli NCM3722 delta-hslV, growth: N-lim chemostat, doubling time 6 h.
The mark [3] stands for this setting: E. coli NCM3722 delta-lon, growth: N-lim chemostat, doubling time 6 h.
Where [4] appears, read: E. coli NCM3722 delta-smpB, growth: N-lim chemostat, doubling time 6 h.
[5] abbreviates: wild type E. coli NCM3722, growth: C-lim chemostat, doubling time 3 h.
Setting [6] is: wild type E. coli NCM3722, growth: C-lim chemostat, doubling time 6 h.
Where [7] appears, read: wild type E. coli NCM3722, growth: C-lim chemostat, doubling time 12 h.
The mark [8] stands for this setting: wild type E. coli NCM3722, growth: N-lim chemostat, doubling time 6 h.
The mark [9] stands for this setting: wild type E. coli NCM3722, growth: N-lim chemostat, doubling time 12 h.
[10] abbreviates: wild type E. coli NCM3722, growth: P-lim chemostat, doubling time 6 h.
Where [11] appears, read: wild type E. coli NCM3722, growth: P-lim chemostat, doubling time 12 h.
Where [12] appears, read: E. coli NCM3722 delta-clpP, growth: N-lim chemostat, doubling time 6 h.

± gives the standard deviation of the averaged measurements.

Regarding “MYYGFDIGGTKIALGVFDSGRQLQWEKRVPTPRDSYDAFLDAVCELVAEADQRFGCKGSVGIGIPGMPETEDGTLYAANVPAASGKPLRADLSARLDRDVRLDNDANCFALSEAWDDEFTQYPLVMGLILGTGVGGGLIFNGKPITGKSYITGEFGHMRLPVDALTMMGLDFPLRRCGCGQHGCIENYLSGRGFAWLYQHYYHQPLQAPEIIALYDQGDEQARAHVERYLDLLAVCLGNILTIVDPDLVVIGGGLSNFPAITTQLADRLPRHLLPVARVPRIERARHGDAGGMRGAAFLHLTD”, the “total protein half-life in vivo” value is, setting by setting: under setting [1], 4.42 ± 0.85 h; under setting [2], 3.76 ± 0.45 h; under setting [3], 4.37 ± 0.18 h; under setting [4], 4.06 ± 0.31 h; under setting [5], 2.86 ± 0.4 h; under setting [6], 4.98 ± 0.17 h. Also, the “total protein half-life in vivo” value stood at 9.97 ± 0.28 h under setting [7]; 3.9761 ± 0.0021 h under setting [8]; 6.67 ± 1.1 h under setting [9]; 6.09 ± 0.9 h under setting [10]; 11.7 ± 0.2 h under setting [11].

Take “MNNDNTDYVSNESGTLSRLFKLPQHGTTVRTELIAGMTTFLTMVYIVFVNPQILGAAQMDPKVVFVTTCLIAGIGSIAMGIFANLPVALAPAMGLNAFFAFVVVGAMGISWQTGMGAIFWGAVGLFLLTLFRIRYWMISNIPLSLRIGITSGIGLFIALMGLKNTGVIVANKDTLVMIGDLSSHGVLLGILGFFIITVLSSRHFHAAVLVSIVVTSCCGLFFGDVHFSGVYSIPPDISGVIGEVDLSGALTLELAGIIFSFMLINLFDSSGTLIGVTDKAGLIDGNGKFPNMNKALYVDSVSSVAGAFIGTSSVTAYIESTSGVAVGGRTGLTAVVVGVMFLLVMFFSPLVAIVPPYATAGALIFVGVLMTSSLARVNWDDFTESVPAFITTVMMPFTFSITEGIALGFMSYCIMKVCTGRWRDLNLCVVVVAALFALKIILVD”: the “total protein half-life in vivo” value was 3.27 h under setting [5] and 5.84 h under setting [6].

With “MDLRRFITLKTVVEEGSFLRASQKLCCTQSTVTFHIQQLEQEFSVQLFEKIGRRMCLTREGKKLLPHIYELTRVMDTLREAAKKESDPDGELRVVSGETLLSYRMPQVLQRFRQRAPKVRLSLQSLNCYVIRDALLNDEADVGVFYRVGNDDALNRRELGEQSLVLVASPQIADVDFTEPGRHNACSFIINEPQCVFRQIFESTLRQRRITVENTIELISIESIKRCVAANIGVSYLPRFAVAKELECGELIELPFGEQSQTITAMCAHHAGKAVSPAMHTFIQCVEESFVAG”, the “total protein half-life in vivo” value was 5.31 ± 0.83 h under setting [1]; above 8 h under setting [12]; 4.13 h under setting [2]; 4.83 h under setting [3]; 3.41 h under setting [4]; 4.86 h under setting [6]. In addition, the “total protein half-life in vivo” value was 8.259 ± 0.077 h under setting [7]; 4.37 ± 0.49 h under setting [8]; 6.51 h under setting [9]; 5.85 h under setting [10]; 7.91 h under setting [11].

For “MSLTRLLIRDFRNIETADLALSPGFNFLVGANGSGKTSVLEAIYTLGHGRAFRSLQIGRVIRHEQEAFVLHGRLQGEERETAIGLTKDKQGDSKVRIDGTDGHKVAELAHLMPMQLITPEGFTLLNGGPKYRRAFLDWGCFHNEPGFFTAWSNLKRLLKQRNAALRQVTRYEQLRPWDKELIPLAEQISTWRAEYSAGIAADMADTCKQFLPEFSLTFSFQRGWEKETEYAEVLERNFERDRQLTYTAHGPHKADLRIRADGAPVEDTLSRGQLKLLMCALRLAQGEFLTRESGRRCLYLIDDFASELDDERRGLLASRLKATQSQVFVSAISAEHVIDMSDENSKMFTVEKGKITD [P0A7H0]”, the “total protein half-life in vivo” value was determined as 5.54 ± 0.29 h under setting [1]; 4.43 ± 0.14 h under setting [12]; 3.95 ± 0.053 h under setting [2]; 4.92 ± 0.21 h under setting [3]; 3.93 ± 0.32 h under setting [4]; 5.07 ± 0.41 h under setting [6]. Also, the “total protein half-life in vivo” value by setting is: under setting [7], 9.88 ± 0.3 h; under setting [8], 4.32 ± 0.1 h; under setting [9], 8.32 ± 0.12 h; under setting [10], 4.06 ± 1 h; under setting [11], 7.31 ± 0.63 h.

As to “MSHQHTTQTSGQGMLERVFKLREHGTTARTEVIAGFTTFLTMVYIVFVNPQILGVAGMDTSAVFVTTCLIAAFGSIMMGLFANLPVALAPAMGLNAFFAFVVVQAMGLPWQVGMGAIFWGAIGLLLLTIFRVRYWMIANIPVSLRVGITSGIGLFIGMMGLKNAGVIVANPETLVSIGNLTSHSVLLGILGFFIIAILASRNIHAAVLVSIVVTTLLGWMLGDVHYNGIVSAPPSVMTVVGHVDLAGSFNLGLAGVIFSFMLVNLFDSSGTLIGVTDKAGLADEKGKFPRMKQALYVDSISSVTGSFIGTSSVTAYIESSSGVSVGGRTGLTAVVVGLLFLLVIFLSPLAGMVPGYAAAGALIYVGVLMTSSLARVNWQDLTESVPAFITAVMMPFSFSITEGIALGFISYCVMKIGTGRLRDLSPCVIIVALLFILKIVFIDAH”, the “total protein half-life in vivo” value by setting is: under setting [1], 6.67 ± 0.81 h; under setting [12], 6.107 ± 0.041 h; under setting [2], 5.86 ± 0.14 h; under setting [3], 5.93 h; under setting [4], 5.32 ± 0.85 h; under setting [6], 5.56 ± 0.18 h. The “total protein half-life in vivo” value by setting is: under setting [7], 12.7 ± 2.2 h; under setting [8], 6.02 ± 0.079 h; under setting [10], 5.99 ± 0.52 h; under setting [11], 11.2 ± 0.99 h.

Take “MYTRNLLWLVSLVSAAPLYAADVPANTPLAPQQVFRYNNHSDPGTLDPQKVEENTAAQIVLDLFEGLVWMDGEGQVQPAQAERWEILDGGKRYIFHLRSGLQWSDGQPLTAEDFVLGWQRAVDPKTASPFAGYLAQAHINNAAAIVAGKADVTSLGVKATDDRTLEVTLEQPVPWFTTMLAWPTLFPVPHHVIAKHGDSWSKPENMVYNGAFVLDQWVVNEKITARKNPKYRDAQHTVLQQVEYLALDNSVTGYNRYRAGEVDLTWVPAQQIPAIEKSLPGELRIIPRLNSEYYNFNLEKPPFNDVRVRRALYLTVDRQLIAQKVLGLRTPATTLTPPEVKGFSATTFDELQKPMSERVAMAKALLKQAGYDASHPLRFELFYNKYDLHEKTAIALSSEWKKWLGAQVTLRTMEWKTYLDARRAGDFMLSRQSWDATYNDASSFLNTLKSDSEENVGHWKNAQYDALLNQATQITDATKRNALYQQAEVIINQQAPLIPIYYQPLIKLLKPYVGGFPLHNPQDYVYSKELYIKAH”: the “total protein half-life in vivo” value came to 5.575 ± 0.035 h under setting [12]; 6.61 ± 1.4 h under setting [2]; 6.72 ± 0.075 h under setting [3]; 5.64 ± 0.24 h under setting [4]; 2.9 ± 0.11 h under setting [5]; 5.96 ± 0.64 h under setting [6]. In addition, the “total protein half-life in vivo” value was 11 ± 0.65 h under setting [7], 5.531 ± 0.0077 h under setting [8], 5.83 ± 0.61 h under setting [10] and 11.7 ± 0.71 h under setting [11].

With “MTLETAFMLPVQDAQHSFRRLLKAMSEPGVIVALHQLKRGWQPLNIATTSVLLTLADNDTPVWLSTPLNNDIVNQSLRFHTNAPLVSQPEQATFAVTDEAISSEQLNALSTGTAVAPEAGATLILQVASLSGGRMLRLTGAGIAEERMIAPQLPECILHELTERPHPFPLGIDLILTCGERLLAIPRTTHVEVC”, the “total protein half-life in vivo” value is, setting by setting: under setting [10], 1.74 ± 0.51 h; under setting [11], 3.12 ± 1.3 h.

As for “MGLFNFVKDAGEKLWDAVTGQHDKDDQAKKVQEHLNKTGIPDADKVNIQIADGKATVTGDGLSQEAKEKILVAVGNISGIASVDDQVKTATPATASQFYTVKSGDTLSAISKQVYGNANLYNKIFEANKPMLKSPDKIYPGQVLRIPEE [P0ADE6]”, the “total protein half-life in vivo” value under setting [1] was found to be 6.19 ± 0.023 h; the “total protein half-life in vivo” value under setting [12] stood at 5.8 ± 0.83 h; the “total protein half-life in vivo” value under setting [2] was found to be 5.979 ± 0.053 h; the “total protein half-life in vivo” value under setting [3] came out at 6.34 ± 0.072 h; the “total protein half-life in vivo” value under setting [4] is 5.3 ± 0.33 h; the “total protein half-life in vivo” value under setting [5] stood at 3.18 ± 0.085 h. Further, the “total protein half-life in vivo” value under setting [6] is 5.55 ± 0.29 h; the “total protein half-life in vivo” value under setting [7] came out at 9.85 ± 1.1 h; the “total protein half-life in vivo” value under setting [8] was found to be 4.67 ± 0.066 h; the “total protein half-life in vivo” value under setting [9] turned out to be 9.41 ± 1.2 h; the “total protein half-life in vivo” value under setting [10] came out at 5.21 ± 0.41 h; the “total protein half-life in vivo” value under setting [11] came out at 11.7 ± 0.15 h.
